Data reported in article PMC8480326, “Chemoenzymatic glycan-selective remodeling of a therapeutic lysosomal enzyme with high-affinity M6P-glycan ligands. Enzyme substrate specificity is the name of the game” (Chemical Science, 2021).

Biological target: T1, Recombinant human IGF-II R (CI-MPR) (Homo sapiens, UniProt P11717)
T1 construct: purchased R&D Systems
Test: SPR binding to immobilized CI-MPR
Experimental: Surface Plasmon Resonance (SPR) Measurements. SPR measurements were performed on a Biacore T200 instrument (GE Healthcare). Recombinant human IGF-II R (CI-MPR) was purchased
from R&D Systems. Approximately 7000 resonance units (RU) of CI-MPR was immobilized on a
CM5 sensor chip in a sodium acetate buffer (25 μg/mL, pH 4.0) at 25 °C, using the amine coupling kit
provided by the manufacturer. Mannose 6-phosphate containing glycopeptides or glycoproteins were
determined at 25 °C under a flow rate of 10 μL/min. HBS-P+ buffer (10 mM HEPES, 150 mM NaCl,
0.05% surfactant P20, pH 7.4) was used as sample buffer and running buffer. Association was
measured for 3 min and dissociation for 10 min at same flow rate (10 μL/min). The surface
and glycoprotein analytes flowed over an immobilized chip with 2-fold serial dilution of the highest
concentration of 4 μM (for glycopeptides) or 1 μM (for RNase B) or 250 nM (for rhGAA).
analyses were performed by global fitting of the binding data to a 1:1 Langmuir binding model using

T1 sequence (P11717 41-2491): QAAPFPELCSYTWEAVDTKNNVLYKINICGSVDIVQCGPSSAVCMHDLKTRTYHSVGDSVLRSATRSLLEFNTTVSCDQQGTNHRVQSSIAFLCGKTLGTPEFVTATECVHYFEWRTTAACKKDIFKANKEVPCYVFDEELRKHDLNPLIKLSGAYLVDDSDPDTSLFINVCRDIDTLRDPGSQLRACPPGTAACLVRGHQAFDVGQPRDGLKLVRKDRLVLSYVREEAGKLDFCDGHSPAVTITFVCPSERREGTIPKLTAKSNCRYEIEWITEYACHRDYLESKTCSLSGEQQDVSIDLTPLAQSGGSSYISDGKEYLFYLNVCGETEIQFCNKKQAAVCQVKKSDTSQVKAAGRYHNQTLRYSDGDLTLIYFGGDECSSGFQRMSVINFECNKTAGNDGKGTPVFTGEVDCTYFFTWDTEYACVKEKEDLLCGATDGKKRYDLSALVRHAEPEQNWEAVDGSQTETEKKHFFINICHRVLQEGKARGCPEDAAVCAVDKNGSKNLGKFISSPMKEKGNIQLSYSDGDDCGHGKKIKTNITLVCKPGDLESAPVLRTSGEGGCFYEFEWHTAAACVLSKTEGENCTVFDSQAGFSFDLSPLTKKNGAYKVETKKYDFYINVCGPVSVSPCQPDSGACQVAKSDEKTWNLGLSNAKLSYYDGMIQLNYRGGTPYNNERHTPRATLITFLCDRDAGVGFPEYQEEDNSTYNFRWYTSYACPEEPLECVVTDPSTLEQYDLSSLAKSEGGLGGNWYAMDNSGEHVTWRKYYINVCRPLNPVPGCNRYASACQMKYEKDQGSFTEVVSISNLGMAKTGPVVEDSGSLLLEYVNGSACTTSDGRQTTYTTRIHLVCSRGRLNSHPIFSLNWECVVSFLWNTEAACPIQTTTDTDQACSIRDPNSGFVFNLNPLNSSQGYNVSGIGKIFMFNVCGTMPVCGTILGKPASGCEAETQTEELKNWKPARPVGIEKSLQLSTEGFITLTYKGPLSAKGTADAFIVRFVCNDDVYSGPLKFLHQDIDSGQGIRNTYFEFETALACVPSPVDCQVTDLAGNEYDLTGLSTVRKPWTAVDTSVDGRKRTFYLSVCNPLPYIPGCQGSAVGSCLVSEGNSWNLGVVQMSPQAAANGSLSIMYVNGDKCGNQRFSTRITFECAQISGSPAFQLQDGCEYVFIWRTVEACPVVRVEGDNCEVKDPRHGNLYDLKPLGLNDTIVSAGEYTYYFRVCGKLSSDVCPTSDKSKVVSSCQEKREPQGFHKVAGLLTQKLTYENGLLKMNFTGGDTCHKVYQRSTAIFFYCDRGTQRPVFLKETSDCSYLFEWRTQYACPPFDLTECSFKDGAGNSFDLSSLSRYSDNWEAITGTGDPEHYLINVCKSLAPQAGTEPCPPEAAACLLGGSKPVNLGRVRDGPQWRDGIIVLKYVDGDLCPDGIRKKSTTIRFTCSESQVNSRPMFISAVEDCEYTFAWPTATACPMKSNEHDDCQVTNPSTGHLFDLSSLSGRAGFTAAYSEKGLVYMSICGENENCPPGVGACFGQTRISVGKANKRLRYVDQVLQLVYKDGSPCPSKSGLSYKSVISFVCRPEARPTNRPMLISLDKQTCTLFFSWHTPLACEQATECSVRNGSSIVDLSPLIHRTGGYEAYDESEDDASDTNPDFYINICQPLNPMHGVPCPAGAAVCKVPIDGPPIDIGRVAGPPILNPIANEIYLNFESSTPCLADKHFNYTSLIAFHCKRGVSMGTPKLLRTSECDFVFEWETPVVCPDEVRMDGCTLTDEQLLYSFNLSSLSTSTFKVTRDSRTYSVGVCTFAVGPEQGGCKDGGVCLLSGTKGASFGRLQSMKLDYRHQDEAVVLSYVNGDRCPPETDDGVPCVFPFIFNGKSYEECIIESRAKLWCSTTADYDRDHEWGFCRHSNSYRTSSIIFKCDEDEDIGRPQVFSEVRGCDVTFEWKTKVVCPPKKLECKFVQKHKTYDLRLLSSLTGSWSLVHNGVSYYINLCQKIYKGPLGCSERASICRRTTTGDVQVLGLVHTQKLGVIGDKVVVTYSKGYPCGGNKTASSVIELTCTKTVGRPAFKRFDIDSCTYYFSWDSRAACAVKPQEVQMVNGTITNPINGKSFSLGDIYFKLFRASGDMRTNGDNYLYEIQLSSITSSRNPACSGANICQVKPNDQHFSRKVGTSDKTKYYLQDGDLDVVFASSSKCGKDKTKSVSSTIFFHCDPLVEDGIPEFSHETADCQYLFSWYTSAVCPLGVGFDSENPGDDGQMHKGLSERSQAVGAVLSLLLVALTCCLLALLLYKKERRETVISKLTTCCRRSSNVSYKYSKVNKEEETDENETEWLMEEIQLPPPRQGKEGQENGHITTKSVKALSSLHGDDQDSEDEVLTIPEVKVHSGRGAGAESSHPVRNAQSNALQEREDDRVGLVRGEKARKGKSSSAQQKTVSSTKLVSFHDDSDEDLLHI

Kd (SPR, immobilized CI-MPR, 25 °C, average of three independent experiments): 15.8 nM | Ka (representative SPR sensorgram, 1:1 Langmuir fit, association constant): 6.877E+4 | Kd (representative SPR sensorgram, single experiment): 15.5 nM
B1: 68: M6P-containing RNase B, remodeled with tetrasaccharide oxazoline 8 by Endo-A (protein, UniProt P61823 27-150, looked up)
Ribonuclease pancreatic: KETAAAKFERQHMDSSTSAASSSNYCNQMMKSRNLTKDRCKPVNTFVHESLADVQAVCSQKNVACKNGQTNCYQSYSTMSITDCRETGSSKYPNCAYKTTQANKHIIVACEGNPYVPVHFDASV
modifications: M6P-tetrasaccharide glycan remodeled by Endo-A
notes: M6P-containing RNase B, remodeled with tetrasaccharide oxazoline 8 by Endo-A
